Measured values taken from the supplement of paper PMC9876800.

System: peptide library, one residue held at a place counted from the S/T acceptor
Assay: relative phosphorylation of the sub-library (ratio to the mean residue at this position); higher = residue favoured
Procedure, shortened: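 Relative sub-library phosphorylation, a ratio to the mean residue at that position, was obtained by phosphorimaging and densitometry of spots on streptavidin membranes. Before capture, purified recombinant kinases were incubated for 90 min under kinase-specific conditions with 50 μM biotinylated degenerate peptide sub-libraries and 50 μM ATP spiked with γ-32P-ATP. Each sub-library fixed one residue at one position around a central Ser/Thr.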

Sequence of DMPK, construct: aa24-433, human (Q09013 24-433, looked up): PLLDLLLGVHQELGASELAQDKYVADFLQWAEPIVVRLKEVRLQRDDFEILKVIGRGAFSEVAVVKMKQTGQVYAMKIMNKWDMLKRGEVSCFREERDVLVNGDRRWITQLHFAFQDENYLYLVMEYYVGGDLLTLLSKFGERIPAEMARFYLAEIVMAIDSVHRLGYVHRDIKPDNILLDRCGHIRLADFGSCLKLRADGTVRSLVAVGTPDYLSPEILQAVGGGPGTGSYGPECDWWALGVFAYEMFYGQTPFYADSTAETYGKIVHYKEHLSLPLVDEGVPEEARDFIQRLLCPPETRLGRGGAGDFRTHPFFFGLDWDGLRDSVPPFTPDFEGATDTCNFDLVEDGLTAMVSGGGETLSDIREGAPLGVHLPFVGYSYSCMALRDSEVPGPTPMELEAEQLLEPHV
Sequence of RPS6KA1, construct: Full length, human (Q15418 whole entry, looked up): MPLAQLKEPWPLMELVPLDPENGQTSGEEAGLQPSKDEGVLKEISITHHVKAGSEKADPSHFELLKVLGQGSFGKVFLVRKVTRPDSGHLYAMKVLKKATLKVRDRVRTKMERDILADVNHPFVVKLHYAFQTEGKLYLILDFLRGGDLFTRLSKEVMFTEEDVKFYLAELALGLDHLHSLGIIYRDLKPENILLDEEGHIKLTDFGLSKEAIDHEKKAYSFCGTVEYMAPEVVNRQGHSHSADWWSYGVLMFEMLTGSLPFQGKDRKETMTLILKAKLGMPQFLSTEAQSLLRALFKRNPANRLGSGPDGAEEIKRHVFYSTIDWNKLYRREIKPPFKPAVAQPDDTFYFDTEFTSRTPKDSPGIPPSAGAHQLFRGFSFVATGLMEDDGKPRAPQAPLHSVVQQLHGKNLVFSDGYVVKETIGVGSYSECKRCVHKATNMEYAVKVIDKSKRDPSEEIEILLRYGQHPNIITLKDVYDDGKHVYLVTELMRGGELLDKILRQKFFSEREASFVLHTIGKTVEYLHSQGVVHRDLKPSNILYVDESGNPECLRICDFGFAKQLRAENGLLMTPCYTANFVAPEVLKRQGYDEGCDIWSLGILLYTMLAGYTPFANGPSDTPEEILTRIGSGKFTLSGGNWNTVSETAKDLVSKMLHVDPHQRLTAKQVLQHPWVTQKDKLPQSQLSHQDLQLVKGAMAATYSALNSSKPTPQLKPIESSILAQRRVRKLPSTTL

RPS6KA1, construct: Full length, human (from UniProt Q15418)
relative phosphorylation
Settings | at +1 | at +2 | at +3 | at +4 | at -1 | at -2 | at -3 | at -4 | at -5
A fixed | 0.899 | 1.02 | 0.983 | 0.839 | 0.926 | 0.75 | 0.694 | 1.2 | 0.916
D fixed | 0.459 | 0.887 | 1.1 | 1.25 | 0.593 | 0.724 | 0.524 | 0.574 | 0.439
E fixed | 0.784 | 0.691 | 1.13 | 1.03 | 0.408 | 0.614 | 0.424 | 0.703 | 0.364
F fixed | 1.09 | 0.767 | 1 | 0.816 | 0.796 | 0.684 | 0.365 | 0.817 | 0.822
G fixed | 0.654 | 0.939 | 1.08 | 0.985 | 1.19 | 1.2 | 0.737 | 1.22 | 0.977
H fixed | 1.15 | 1.55 | 1.24 | 1.05 | 1.06 | 1.14 | 0.549 | 0.857 | 0.935
I fixed | 1.3 | 1.05 | 0.853 | 0.76 | 0.404 | 0.546 | 0.331 | 0.931 | 0.849
K fixed | 0.881 | 0.77 | 0.686 | 1.14 | 1.21 | 1.86 | 1.32 | 1.63 | 1.84
L fixed | 0.969 | 0.816 | 1.05 | 0.785 | 0.942 | 1.14 | 0.388 | 0.895 | 1.18
M fixed | 1.1 | 0.774 | 0.93 | 0.791 | 1.04 | 0.897 | 0.487 | 1.05 | 0.72
N fixed | 1.02 | 1.04 | 0.822 | 1.01 | 1.14 | 0.732 | 0.506 | 0.722 | 0.67
P fixed | 0.625 | 0.615 | 0.914 | 1.47 | 2.71 | 0.581 | 0.76 | 0.979 | 0.993
Q fixed | 1.39 | 0.817 | 0.94 | 1.21 | 0.997 | 1.15 | 0.538 | 0.83 | 0.696
R fixed | 1.07 | 1.2 | 0.875 | 0.914 | 1.25 | 3.29 | 8.19 | 2.05 | 2.91
V fixed | 1.62 | 1.14 | 0.801 | 0.819 | 0.592 | 0.441 | 0.315 | 0.79 | 0.75
W fixed | 0.884 | 1.16 | 1.34 | 1.16 | 0.739 | 0.597 | 0.482 | 0.978 | 1.1
Y fixed | 1.1 | 1.77 | 1.26 | 0.969 | 1.01 | 0.649 | 0.39 | 0.779 | 0.841
pThr fixed | 1.51 | 0.917 | 1.17 | 1.95 | 0.284 | 0.293 | 0.348 | 0.573 | 0.527
pTyr fixed | 1.32 | 0.957 | 1.59 | 1.17 | 0.522 | 0.33 | 0.332 | 0.413 | 0.526

DMPK, construct: aa24-433, human (from UniProt Q09013)
relative phosphorylation
Settings | at +1 | at +2 | at +3 | at +4 | at -1 | at -2 | at -3 | at -4 | at -5
A fixed | 0.884 | 1.09 | 0.772 | 0.749 | 0.934 | 0.551 | 0.572 | 0.816 | 0.664
D fixed | 0.54 | 1.27 | 0.59 | 0.767 | 0.487 | 0.294 | 0.309 | 0.393 | 0.359
E fixed | 0.471 | 0.67 | 0.579 | 0.643 | 0.362 | 0.268 | 0.284 | 0.456 | 0.379
F fixed | 0.68 | 0.838 | 0.963 | 0.954 | 0.739 | 0.349 | 0.269 | 0.657 | 0.8
G fixed | 1.68 | 0.858 | 1.04 | 0.945 | 1.08 | 0.537 | 0.448 | 0.959 | 0.915
H fixed | 1.2 | 1.38 | 1.14 | 1.05 | 1.01 | 0.716 | 0.776 | 0.898 | 1.07
I fixed | 1.2 | 1.12 | 1.64 | 0.829 | 0.585 | 0.43 | 0.343 | 0.946 | 1.11
K fixed | 1.05 | 1.23 | 1.03 | 1.47 | 2.01 | 2.67 | 3.21 | 2.42 | 2.72
L fixed | 0.967 | 0.883 | 1.04 | 1.09 | 0.674 | 0.418 | 0.343 | 0.749 | 0.847
M fixed | 0.961 | 0.75 | 0.779 | 0.916 | 0.755 | 0.485 | 0.297 | 0.749 | 0.756
N fixed | 1.29 | 0.779 | 0.83 | 1.01 | 1.2 | 0.747 | 0.43 | 0.864 | 0.675
P fixed | 0.622 | 0.808 | 0.79 | 1.18 | 1.74 | 0.474 | 0.461 | 0.796 | 0.872
Q fixed | 1.25 | 1.06 | 0.882 | 1.07 | 1.22 | 0.933 | 0.877 | 0.922 | 0.882
R fixed | 1.87 | 1.28 | 1.54 | 1.47 | 2.18 | 6.76 | 7.34 | 3.06 | 2.66
V fixed | 0.943 | 1.28 | 1.5 | 0.825 | 0.605 | 0.507 | 0.369 | 0.95 | 0.803
W fixed | 0.641 | 0.925 | 0.926 | 1.21 | 0.644 | 0.431 | 0.304 | 0.647 | 0.657
Y fixed | 0.742 | 0.796 | 0.971 | 0.832 | 0.78 | 0.428 | 0.371 | 0.719 | 0.839
pThr fixed | 0.678 | 1.19 | 0.865 | 0.862 | 0.521 | 0.441 | 0.48 | 0.575 | 0.561
pTyr fixed | 0.522 | 0.996 | 0.772 | 0.617 | 0.52 | 0.387 | 0.493 | 0.548 | 0.689
